# System: Escherichia coli TOP10
# Assay: shrunken log2 fold change of peptide-encoding DNA abundance (4.5 h post-induction vs induction); higher = less antimicrobial activity (less host growth inhibition)
# Details: time post-induction: 4.5 h; library: site-saturation at positions 5, 18, 19, 20
# 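Further: peptides expressed intracellularly from a pBAD plasmid library in pooled LB shake-flask culture, induced with 0.3% L-arabinose, DNA abundance read by NGS, three biological replicates, DESeq2 with apeglm shrinkage.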
row,Sequence,shrunken log2 fold change
1,RRIRDRPPRLPRPRPRPTMRPRP,1.3
2,RRIRHRPPRLPRPRPRPAFFPRP,0.0438
3,RRIRLRPPRLPRPRPRPAYDPRP,-0.00456
4,RRIRTRPPRLPRPRPRPALMPRP,0.165
5,RRIRERPPRLPRPRPRPNGMPRP,-0.0154
6,RRIRLRPPRLPRPRPRPPSAPRP,0.654
7,RRIRFRPPRLPRPRPRPSYIPRP,-0.41
8,RRIRHRPPRLPRPRPRPVGYPRP,0.00996
9,RRIRQRPPRLPRPRPRPNDNPRP,-0.577
10,RRIRYRPPRLPRPRPRPDHHPRP,-0.0423
11,RRIRGRPPRLPRPRPRPVAYPRP,0.0402
12,RRIRMRPPRLPRPRPRPREWPRP,-0.0018
13,RRIRARPPRLPRPRPRPHCGPRP,0.507
14,RRIRGRPPRLPRPRPRPGSSPRP,0.028
15,RRIRMRPPRLPRPRPRPSGFPRP,0.411
16,RRIRFRPPRLPRPRPRPRFAPRP,0.366
17,RRIRCRPPRLPRPRPRPDNPPRP,-0.137
18,RRIRYRPPRLPRPRPRPKSWPRP,-0.00323
19,RRIRFRPPRLPRPRPRPNWWPRP,-0.0248
20,RRIRCRPPRLPRPRPRPMFHPRP,-0.723
21,RRIRARPPRLPRPRPRPIHDPRP,-0.0961
22,RRIRTRPPRLPRPRPRPAYEPRP,0.164
23,RRIRMRPPRLPRPRPRPLKCPRP,-0.0167

row,Sequence,shrunken log2 fold change
1,RRIRMRPPRLPRPRPRPNDGPRP,-0.0703
2,RRIRCRPPRLPRPRPRPCYNPRP,-0.837
3,RRIRGRPPRLPRPRPRPTLWPRP,1.27
4,RRIRYRPPRLPRPRPRPGVHPRP,-0.452
5,RRIRQRPPRLPRPRPRPIDIPRP,0.107
6,RRIRYRPPRLPRPRPRPYNFPRP,-0.246
7,RRIRGRPPRLPRPRPRPTPQPRP,1.05
8,RRIRARPPRLPRPRPRPWAIPRP,0.253
9,RRIRERPPRLPRPRPRPYGVPRP,-0.128
10,RRIRVRPPRLPRPRPRPVGIPRP,-0.0251
11,RRIRWRPPRLPRPRPRPYSNPRP,-0.2
12,RRIRQRPPRLPRPRPRPDRIPRP,-0.185
13,RRIRDRPPRLPRPRPRPGTKPRP,-0.0282
14,RRIRTRPPRLPRPRPRPRCFPRP,0.204
15,RRIRDRPPRLPRPRPRPTCEPRP,0.705
16,RRIRQRPPRLPRPRPRPIQNPRP,-0.11
17,RRIRSRPPRLPRPRPRPSNTPRP,-0.748
18,RRIRRRPPRLPRPRPRPLMTPRP,0.351
19,RRIRSRPPRLPRPRPRPANWPRP,0.343
20,RRIRDRPPRLPRPRPRPAFKPRP,0.0611
21,RRIRQRPPRLPRPRPRPSEHPRP,-0.195
22,RRIRNRPPRLPRPRPRPQQWPRP,-0.0346
23,RRIRVRPPRLPRPRPRPIKFPRP,0.0613

row,Sequence,shrunken log2 fold change
1,RRIRPRPPRLPRPRPRPISCPRP,-0.0606
2,RRIRGRPPRLPRPRPRPTADPRP,2.65
3,RRIRPRPPRLPRPRPRPLYRPRP,-0.181
4,RRIRIRPPRLPRPRPRPGFRPRP,0.0935
5,RRIRLRPPRLPRPRPRPNQCPRP,-0.206
6,RRIRWRPPRLPRPRPRPYNIPRP,-0.243
7,RRIRIRPPRLPRPRPRPDTWPRP,-0.239
8,RRIRHRPPRLPRPRPRPADKPRP,-0.245
9,RRIRSRPPRLPRPRPRPKGCPRP,0.134
10,RRIRFRPPRLPRPRPRPNETPRP,-0.0424
11,RRIRFRPPRLPRPRPRPIHSPRP,-0.895
12,RRIRERPPRLPRPRPRPHWAPRP,0.225
13,RRIRERPPRLPRPRPRPIKKPRP,0.00021
14,RRIRYRPPRLPRPRPRPDVGPRP,-0.273
15,RRIRSRPPRLPRPRPRPKCGPRP,0.397
16,RRIRSRPPRLPRPRPRPMPGPRP,-0.102
17,RRIRLRPPRLPRPRPRPQRVPRP,0.0215
18,RRIRGRPPRLPRPRPRPIYEPRP,-0.0413
19,RRIRERPPRLPRPRPRPCCIPRP,0.0508
20,RRIRKRPPRLPRPRPRPWRAPRP,0.5
21,RRIRGRPPRLPRPRPRPFPYPRP,-0.334
22,RRIRYRPPRLPRPRPRPEDVPRP,-0.00968
23,RRIRLRPPRLPRPRPRPSWEPRP,0.0244

row,Sequence,shrunken log2 fold change
1,RRIRQRPPRLPRPRPRPQLGPRP,-0.194
2,RRIRYRPPRLPRPRPRPSFEPRP,-0.689
3,RRIRTRPPRLPRPRPRPESDPRP,-0.0712
4,RRIRYRPPRLPRPRPRPAQNPRP,-0.0465
5,RRIRLRPPRLPRPRPRPHNKPRP,-0.59
6,RRIRPRPPRLPRPRPRPTDVPRP,0.35
7,RRIRDRPPRLPRPRPRPLGEPRP,0.147
8,RRIRWRPPRLPRPRPRPCNPPRP,-0.00159
9,RRIRHRPPRLPRPRPRPRKLPRP,-0.141
10,RRIRGRPPRLPRPRPRPWLWPRP,0.0131
11,RRIRWRPPRLPRPRPRPMIDPRP,-0.579
12,RRIRHRPPRLPRPRPRPPCLPRP,-0.0439
13,RRIRLRPPRLPRPRPRPFYTPRP,-0.338
14,RRIRQRPPRLPRPRPRPFIFPRP,-0.257
15,RRIRIRPPRLPRPRPRPCCQPRP,-0.0291
16,RRIRGRPPRLPRPRPRPQPAPRP,0.833
17,RRIRLRPPRLPRPRPRPRPGPRP,0.687
18,RRIRHRPPRLPRPRPRPDGSPRP,-0.0231
19,RRIRPRPPRLPRPRPRPNYDPRP,-0.388
20,RRIRCRPPRLPRPRPRPCFSPRP,-0.344
21,RRIRHRPPRLPRPRPRPKENPRP,-0.0597
22,RRIRFRPPRLPRPRPRPFFNPRP,-0.313
